Assay results reported in patent publication US20200087400A1 (EUREKA THERAPEUTICS, published 2020).

Experiments:
Bio-P19 member A2E-23 = biological target: T1, Bio-P19 member A2E-23 (chain 2 carries a C-terminal BirA substrate peptide (BSP), enzymatically biotinylated; the BSP letters are not given in the patent and are left out); assay: phage ELISA, streptavidin plate, anti-M13-HRP
T1 construct: also called biotinylated control peptide A2E-23/HLA-A*02:01 monomer
Summary of the method: (§1)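 Absorbance at 450 nm after HRP anti-M13 detection gave phage ELISA binding of individual clones, taken from pools panned on PSA146/HLA-A*02:01, in coated plates. In FACS, phage-stained T2 cells were detected by mouse anti-M13 then R-PE horse anti-mouse IgG.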

Bio-P19 member A2E-2 = biological target: T2, Bio-P19 member A2E-2 (chain 2 carries a C-terminal BirA substrate peptide (BSP), enzymatically biotinylated; the BSP letters are not given in the patent and are left out); assay: phage ELISA, streptavidin plate, anti-M13-HRP
T2 construct: also called biotinylated control peptide A2E-2/HLA-A*02:01 monomer
Summary of the method: as §1

Bio-P19 member A2E-3 = biological target: T3, Bio-P19 member A2E-3 (chain 2 carries a C-terminal BirA substrate peptide (BSP), enzymatically biotinylated; the BSP letters are not given in the patent and are left out); assay: phage ELISA, streptavidin plate, anti-M13-HRP
T3 construct: also called biotinylated control peptide A2E-3/HLA-A*02:01 monomer
Summary of the method: as §1

[1] = biological target: T4, HLA-A*02:01 on T2 cells with no peptide loaded (human); assay: flow cytometry, phage on T2 cells, anti-M13 + R-PE anti-mouse IgG
T4 construct: TAP-deficient T2 cells, no peptide loaded from outside; also called T2 cells without peptide loading
Summary of the method: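 Phage ELISA: individual scFv phage clones from panning pools enriched against PSA146/HLA-A*02:01 were incubated in coated streptavidin plates; binding was detected with HRP anti-M13 and HRP substrate, read at 450 nm. For flow cytometry, T2 cells loaded with peptide and β2M were stained with purified phage clones.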

[2] = biological target: T5, control peptide A2E-23/HLA-A*02:01 complex on T2 cells (member of the P19 mixture) (human); assay: flow cytometry, phage on T2 cells
T5 construct: Loaded on T2 cells as part of the mixture of 19 control peptides
Procedure: (§2) Individual phage clones from enriched phage display panning pools against PSA146/HLA-A*02:01 complex were incubated in the coated plates. Binding of the phage clones was detected by HRP-conjugated anti-M13 antibodies and developed using HRP substrate. The absorbance was read at 450 nm. […] Then, unique antibody clones were identified through DNA sequencing of ELISA-positive clones. […] T2 cells loaded with different peptides and β2M were first stained with purified scFv phage clones, followed by staining with a mouse anti-M13 mAb, and finally R-PE conjugated horse anti-mouse IgG from Vector Labs. Each step of the staining was performed for between 30-60 minutes on ice and the cells were washed twice between stainings. All 16 clones recognized PSA146-loaded T2 cells specifically. FIG. 3 provides examples of PSA146/HLA-A*02:01 specific phage clone binding to peptide-loaded T2 cells through FACS.

[3] = biological target: T6, control peptide A2E-16/HLA-A*02:01 complex on T2 cells (member of the P19 mixture) (human); assay: flow cytometry, phage on T2 cells
T6 construct: Loaded on T2 cells as part of the mixture of 19 control peptides
Procedure: as §2

[4] = biological target: T7, control peptide A2E-3/HLA-A*02:01 complex on T2 cells (member of the P19 mixture) (human); assay: flow cytometry, phage on T2 cells
T7 construct: Loaded on T2 cells as part of the mixture of 19 control peptides
Procedure: as §2

[5] = biological target: T8, control peptide A2E-13/HLA-A*02:01 complex on T2 cells (member of the P19 mixture) (human); assay: flow cytometry, phage on T2 cells
T8 construct: Loaded on T2 cells as part of the mixture of 19 control peptides
Procedure: as §2

[6] = biological target: T9, control peptide A2E-15/HLA-A*02:01 complex on T2 cells (member of the P19 mixture) (human); assay: flow cytometry, phage on T2 cells
T9 construct: Loaded on T2 cells as part of the mixture of 19 control peptides
Procedure: as §2

[7] = biological target: T10, control peptide A2E-19/HLA-A*02:01 complex on T2 cells (member of the P19 mixture) (human); assay: flow cytometry, phage on T2 cells
T10 construct: Loaded on T2 cells as part of the mixture of 19 control peptides
Procedure: as §2

[8] = biological target: T11, control peptide A2E-2/HLA-A*02:01 complex on T2 cells (member of the P19 mixture) (human); assay: flow cytometry, phage on T2 cells
T11 construct: Loaded on T2 cells as part of the mixture of 19 control peptides
Procedure: as §2

[9] = biological target: T12, control peptide A2E-7/HLA-A*02:01 complex on T2 cells (member of the P19 mixture) (human); assay: flow cytometry, phage on T2 cells
T12 construct: Loaded on T2 cells as part of the mixture of 19 control peptides
Procedure: as §2

[10] = biological target: T13, control peptide A2E-5/HLA-A*02:01 complex on T2 cells (member of the P19 mixture) (human); assay: flow cytometry, phage on T2 cells
T13 construct: Loaded on T2 cells as part of the mixture of 19 control peptides
Procedure: as §2

[11] = biological target: T14, control peptide A2E-21/HLA-A*02:01 complex on T2 cells (member of the P19 mixture) (human); assay: flow cytometry, phage on T2 cells
T14 construct: Loaded on T2 cells as part of the mixture of 19 control peptides
Procedure: as §2

[12] = biological target: T15, control peptide A2E-14/HLA-A*02:01 complex on T2 cells (member of the P19 mixture) (human); assay: flow cytometry, phage on T2 cells
T15 construct: Loaded on T2 cells as part of the mixture of 19 control peptides
Procedure: as §2

[13] = biological target: T16, control peptide A2E-1/HLA-A*02:01 complex on T2 cells (member of the P19 mixture) (human); assay: flow cytometry, phage on T2 cells
T16 construct: Loaded on T2 cells as part of the mixture of 19 control peptides
Procedure: as §2

[14] = biological target: T17, control peptide A2E-11/HLA-A*02:01 complex on T2 cells (member of the P19 mixture) (human); assay: flow cytometry, phage on T2 cells
T17 construct: Loaded on T2 cells as part of the mixture of 19 control peptides
Procedure: as §2

[15] = biological target: T18, control peptide A2E-6/HLA-A*02:01 complex on T2 cells (member of the P19 mixture) (human); assay: flow cytometry, phage on T2 cells
T18 construct: Loaded on T2 cells as part of the mixture of 19 control peptides
Procedure: as §2

[16] = biological target: T19, control peptide A2E-10/HLA-A*02:01 complex on T2 cells (member of the P19 mixture) (human); assay: flow cytometry, phage on T2 cells
T19 construct: Loaded on T2 cells as part of the mixture of 19 control peptides
Procedure: as §2

[17] = biological target: T20, control peptide A2E-4/HLA-A*02:01 complex on T2 cells (member of the P19 mixture) (human); assay: flow cytometry, phage on T2 cells
T20 construct: Loaded on T2 cells as part of the mixture of 19 control peptides
Procedure: as §2

[18] = biological target: T21, control peptide A2E-8/HLA-A*02:01 complex on T2 cells (member of the P19 mixture) (human); assay: flow cytometry, phage on T2 cells
T21 construct: Loaded on T2 cells as part of the mixture of 19 control peptides
Procedure: as §2

[19] = biological target: T22, control peptide A2E-9/HLA-A*02:01 complex on T2 cells (member of the P19 mixture) (human); assay: flow cytometry, phage on T2 cells
T22 construct: Loaded on T2 cells as part of the mixture of 19 control peptides
Procedure: as §2

[20] = biological target: T23, control peptide A2E-17/HLA-A*02:01 complex on T2 cells (member of the P19 mixture) (human); assay: flow cytometry, phage on T2 cells
T23 construct: Loaded on T2 cells as part of the mixture of 19 control peptides
Procedure: as §2

Measured: binding result

B1: PSA146/HLA-A*02:01-specific scFv phage clone #14 (scFv, V domains shown)
VH: EVQLVQSGAEVKKPGASVKVSCKASGYTFTGYFMHWVRQAPGQGLEWMGGFDPEDGETIYAQKFQGRVTMTEDTSTDTAYMELSSLRSEDTAVYYCARYSYDLWGQGTLVTVSS
VL: QTVVTQEPSLTVSPGGTVTLTCASSTGAVTSGYYPNWFQQKPGQAPRALIYSTSNKHSWTPARFSGSLLGGKAALTLSGVQPEDEAEYYCLLYYGGAQWVFGGGTKLTVLG
no binding: all assays above

B2: PSA146/HLA-A*02:01-specific scFv phage clone #18 (scFv, V domains shown)
VH: QVQLVQSGAEVKKPGESLKISCKGSGYSFTSYWIGWVRQMPGKGLEWMGIIYPGDSDTRYSPSFQGQVTISADKSISTAYLQWSSLKASDTAMYYCARWGSRGFLDAFDIWGQGTMVTVSS
VL: QSVVTQPPSVSAAPGQRVTISCSGSSSNIGNNYVSWYQQLPGAAPRLLIYDNDKRPSGIPDRFSGSKSGTSATLGITGLQTGDEADYYCGTWDSSLSSGVFGGGTKLTVLG
no binding: all assays above

B3: PSA146/HLA-A*02:01-specific scFv phage clone #15 (scFv, V domains shown)
VH: QVQLVQSGAEVKKPGSSVKVSCKASGGTFSSYAISWVRQAPGQGLEWMGRIIPILGIANYAQKFQGRVTITADKSTSTAYMELSSLRSEDTAVYYCARVSQPVYGSSTYDIWGQGTLVTVSS
VL: QAVLTQPPSASGTPGQRVTISCSGRSSNLGSNSVNWYQQVPGTAPKLLIFDNHQRPSGVPDRFSGSKSGTSASLAISGLRSEDETDYYCAAWDDSLNSVVFGGGTKLTVLG
no binding: all assays above
